Earlier results as cited in article PMC2645924.

Experiments:
Cys165 = Cys165 (UniProt position 166, HPGEVCPAKWK); assay: chemical modification; settings: Reduced mutant proteins
Cys46 = Cys46 (UniProt position 47, DFTFVCPTELG); assay: chemical modification; settings: Reduced mutant proteins
Cys32 = Cys32 (UniProt position 33, FWAEWCGPCKM)

AhpC C46S mutant (only C165 remains) (Salmonella typhimurium; C46S)
pKa (Cys165): 8.7

AhpC C165S mutant (only C46 remains) (Salmonella typhimurium; C165S)
pKa (Cys46): less than 5

Thioredoxin (Escherichia coli)
pKa (Cys32): 6.7 – 7.1
